From patent publication EP4470554A1, “USE OF KALLIKREIN I OR DERIVATIVE THEREOF IN TREATMENT OF VCI, PSCI OR CSVD” (Zonhon Biopharma Institute, Inc., priority 2022, dated 2023)

Biological target: T1, LMWK (Homo sapiens, UniProt P01042)
T1 sequence (P01042 19-427 isoform P01042-2 limits assumed): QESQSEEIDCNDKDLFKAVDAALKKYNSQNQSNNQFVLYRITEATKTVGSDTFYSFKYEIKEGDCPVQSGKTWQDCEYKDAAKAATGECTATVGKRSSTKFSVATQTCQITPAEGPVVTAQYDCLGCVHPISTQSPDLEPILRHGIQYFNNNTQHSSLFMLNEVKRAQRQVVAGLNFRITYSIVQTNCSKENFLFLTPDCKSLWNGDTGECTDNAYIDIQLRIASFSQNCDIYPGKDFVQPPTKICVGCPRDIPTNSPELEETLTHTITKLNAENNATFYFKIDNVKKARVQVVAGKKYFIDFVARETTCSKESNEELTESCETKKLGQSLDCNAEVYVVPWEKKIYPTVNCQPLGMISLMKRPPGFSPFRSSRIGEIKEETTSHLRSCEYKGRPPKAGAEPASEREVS
Assay: In vitro activity evaluation based on natural substrates (enzymatic reaction with LMWK, bradykinin quantified by UPLC)
Format: biochemical
Conditions: 37°C, 15min
Protocol: This example compared the enzymatic reaction to produce the effector molecule bradykinin at different ratios of substrate (LMWK) to enzyme (KLK1 or its PEG modified KLK1). The produced effector molecules were separated by reverse phase chromatography, the peak area of the product is calculated, and the curve of bradykinin production with different ratios of substrate to enzyme was drawn. Compare the amount of effector molecules produced by different test samples under the same reaction methods. Through this in vitro method simulating the in vivo effect, the in vivo effects of different tested samples were indirectly compared.
Kb was KLK1 extracted from porcine pancreas. PEG-Kb was PEG10K-modified Kb. PEG10K-hKLK1X1 and PEG-Kb can be prepared according to the conventional method of polyethylene glycol modified drugs.
The samples were mixed according to the following table (in PEG modified samples, the molar mass of the modified active substance was converted). The mixed samples were placed in a 37°C thermostat, incubated for 15min, accurately timed, and the reaction was terminated by adding 50% acetic acid solution according to the volume ratio of 10:1.
After the termination of the reaction, the sample was placed in a desktop centrifuge, centrifuged at 12000rpm for 5min, and the supernatant was taken. Detect with Waters ACQUITY UPLC H-Class, the mobile phase A was 0.1% TFA-H2O, the mobile phase B was 0.1% TFA-ACN, the detection wavelength was 214nm, the column temperature was 30°C, the sample loading volume was 10µl, the flow rate was 0.2ml/min, the running time was 35min, and the running gradient was as follows: Table 3
According to the UPLC chromatograph results of the enzymatic reaction mixture, the chromatographic peak with retention time of 13±0.5min(the peak position of bradykinin) was integrated and summed, and compared with the peak area of per unit mass bradykinin (1mg/ml, loading volume 10µl) to calculate the concentration of bradykinin generated by the enzymatic reaction. The amount of bradykinin produced was calculated according to the total reaction system in Table 2, and finally converted to the amount of bradykinin(µg/mg) produced per milligram of enzyme at each molar ratio.

- Bradykinin production (Molar ratio of substrate to enzyme 1: 1): 11.28 µg/mg (enzyme)
- Bradykinin production (Molar ratio of substrate to enzyme 5: 1): 44.63 µg/mg (enzyme)
- Bradykinin production (Molar ratio of substrate to enzyme 10: 1): 79.99 µg/mg (enzyme)
- Bradykinin production (Molar ratio of substrate to enzyme 15: 1): 103.85 µg/mg (enzyme)
- Bradykinin production (Molar ratio of substrate to enzyme 20: 1): 119.89 µg/mg (enzyme)
Substance: PEG-Kb: PEG10K-modified Kb [reference compound]
